{"source": "the supplement of paper PMC12667976", "parents": {"B1": {"name": "library; numbered along this chain (parent)", "chain": "MATDAALRRLLRLHRTEIAVAVDSAFPLLHALADHDVVPEDKFQETLHLKEKEGCPQAFHALLSWLLTQDSTAILDFWRVLFKDYNLERYGRLQPILDSFPKDVDLSQPRKGRKPPAVPKALVPPPRLPTKRKASEEARAAAPAALTPRGTASPGSQLKAKPPKKPESSAEQQRLPLGNGIQTMSASVQRAVAMSSGDVPGARGAVEGILIQQVFESGGSKKCIQVGGEFYTPSKFEDSGSGKNKARSSSGPKPLVRAKGAQGAAPGGGEARLGQQGSVPAPLALPSDPQLHQKNEDECAVCRDGGELICCDGCPRAFHLACLSPPLREIPSGTWRCSSCLQATVQEVQPRAEEPRPQEPPVETPLPPGLRSAGEEVRGPPGEPLAGMDTTLVYKHLPAPPSAAPLPGLDSSALHPLLCVGPEGQQNLAPGARCGVCGDGTDVLRCTHCAAAFHWRCHFPAGTSRPGTGLRCRSCSGDVTPAPVEGVLAPSPARLAPGPAKDDTASHEPALHRDDLESLLSEHTFDGILQWAIQSMARPAAPFPS"}}, "note": "± gives the standard error."}
{"variants_of": "B1", "test": "AIRE transcriptional activation functional score (insulin promoter-GFP; nonsense median 0, synonymous median 1) (normalised score); higher = higher AIRE activity (more reporter activation)", "conditions": "with insulin promoter-GFP reporter in HEK293", "method_in_brief": "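The functional score compares variant enrichment between select and non-select populations after subtracting wild type. To obtain it, codon-optimized AIRE NNN-codon libraries spanning three regions were placed by Bxb1 recombinase into Flp-In T-REx HEK293 landing-pad cells with an insulin core promoter-GFP reporter. Cells with the top 10% GFP and unselected integrants were tile-sequenced after mCherry+, BFP− integrants had been sorted at day 7 and grown 7 more days. Only variants with 10 counts per million in non-select were kept, rescaled to nonsense median 0 and synonymous median 1, and averaged across biological replicates.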"}
{"variant": "V226E", "AIRE transcriptional activation functional score": "0.0129 ± 0.17"}
{"variant": "C340M", "AIRE transcriptional activation functional score": "1.61 ± 0.023"}
{"variant": "Y90V", "AIRE transcriptional activation functional score": "0.153 ± 0.61"}
{"variant": "A321T", "AIRE transcriptional activation functional score": "0.918 ± 0.15"}
{"variant": "A265T", "AIRE transcriptional activation functional score": "1.01 ± 0.34"}
{"variant": "S217A", "AIRE transcriptional activation functional score": "0.4 ± 0.1"}
{"variant": "T147E", "AIRE transcriptional activation functional score": "1.45 ± 0.37"}
{"variant": "P39K", "AIRE transcriptional activation functional score": "-0.314 ± 0.072"}
{"variant": "E307N", "AIRE transcriptional activation functional score": "1.41 ± 0.1"}
{"variant": "G242Y", "AIRE transcriptional activation functional score": "1.6 ± 0.054"}
{"variant": "G242C", "AIRE transcriptional activation functional score": "1.06 ± 0.092"}
{"variant": "L97E", "AIRE transcriptional activation functional score": "-2.05 ± 0.62"}
{"variant": "C457H", "AIRE transcriptional activation functional score": "0.798 ± 0.2"}
{"variant": "C457V", "AIRE transcriptional activation functional score": "0.0733 ± 0.26"}
{"variant": "P326I", "AIRE transcriptional activation functional score": "1.06 ± 0.39"}
{"variant": "T364R", "AIRE transcriptional activation functional score": "0.983 ± 0.45"}
{"variant": "P542H", "AIRE transcriptional activation functional score": "0.651 ± 0.037"}
{"variant": "D34R", "AIRE transcriptional activation functional score": "-0.24 ± 0.92"}
{"variant": "D34Y", "AIRE transcriptional activation functional score": "-0.0055 ± 0.37"}
{"variant": "D34N", "AIRE transcriptional activation functional score": "0.331 ± 0.084"}
{"variant": "S287R", "AIRE transcriptional activation functional score": "1.04 ± 0.26"}
{"variant": "A271L", "AIRE transcriptional activation functional score": "1.24 ± 0.29"}
{"variant": "A271E", "AIRE transcriptional activation functional score": "1.1 ± 0.12"}
{"variant": "A271Q", "AIRE transcriptional activation functional score": "0.693 ± 0.16"}
{"variant": "V80C", "AIRE transcriptional activation functional score": "-0.468 ± 0.21"}
{"variant": "Y85V", "AIRE transcriptional activation functional score": "0.302 ± 0.21"}
{"variant": "Y85N", "AIRE transcriptional activation functional score": "-0.66 ± 0.27"}
{"variant": "D23W", "AIRE transcriptional activation functional score": "-1 ± 0.21"}
{"variant": "C475Q", "AIRE transcriptional activation functional score": "0.568 ± 0.1"}
{"variant": "E508F", "AIRE transcriptional activation functional score": "0.724 ± 0.13"}
{"variant": "Q342K", "AIRE transcriptional activation functional score": "1.04 ± 0.08"}
{"variant": "L255Y", "AIRE transcriptional activation functional score": "0.945 ± 0.21"}
{"variant": "L255T", "AIRE transcriptional activation functional score": "0.506 ± 0.39"}
{"variant": "R247Q", "AIRE transcriptional activation functional score": "0.669 ± 0.11"}
{"variant": "L87N", "AIRE transcriptional activation functional score": "0.531 ± 0.19"}
{"variant": "L87C", "AIRE transcriptional activation functional score": "0.115 ± 0.26"}
{"variant": "L63F", "AIRE transcriptional activation functional score": "0.298 ± 0.27"}
{"variant": "P266I", "AIRE transcriptional activation functional score": "1.13 ± 0.29"}
{"variant": "P233N", "AIRE transcriptional activation functional score": "1.51 ± 0.2"}
{"variant": "I74Y", "AIRE transcriptional activation functional score": "0.19 ± 0.07"}
{"variant": "K120F", "AIRE transcriptional activation functional score": "0.998 ± 0.34"}
{"variant": "K120Y", "AIRE transcriptional activation functional score": "1.34 ± 0.37"}
{"variant": "A58F", "AIRE transcriptional activation functional score": "0.0934 ± 0.1"}
{"variant": "H512A", "AIRE transcriptional activation functional score": "0.977 ± 0.23"}
{"variant": "H512C", "AIRE transcriptional activation functional score": "-0.3 ± 0.26"}
{"variant": "P331L", "AIRE transcriptional activation functional score": "0.9 ± 0.1"}
{"variant": "A121H", "AIRE transcriptional activation functional score": "0.141 ± 0.31"}
{"variant": "A352H", "AIRE transcriptional activation functional score": "0.902 ± 0.077"}
{"variant": "A352G", "AIRE transcriptional activation functional score": "0.813 ± 0.17"}
{"variant": "L291C", "AIRE transcriptional activation functional score": "1.01 ± 0.29"}
{"variant": "L291I", "AIRE transcriptional activation functional score": "0.864 ± 0.069"}
{"variant": "V123K", "AIRE transcriptional activation functional score": "1.26 ± 0.2"}
{"variant": "A145F", "AIRE transcriptional activation functional score": "1.23 ± 0.21"}
{"variant": "A482L", "AIRE transcriptional activation functional score": "1.44 ± 0.068"}
{"variant": "D297Q", "AIRE transcriptional activation functional score": "1.32 ± 0.37"}
{"variant": "L366A", "AIRE transcriptional activation functional score": "0.656 ± 0.12"}
{"variant": "D514V", "AIRE transcriptional activation functional score": "0.335 ± 0.26"}
{"variant": "D514A", "AIRE transcriptional activation functional score": "0.214 ± 0.078"}
{"variant": "C310L", "AIRE transcriptional activation functional score": "0.935 ± 0.24"}
{"variant": "C310W", "AIRE transcriptional activation functional score": "0.433 ± 0.076"}
{"variant": "P509M", "AIRE transcriptional activation functional score": "1.65 ± 0.075"}
{"variant": "G219L", "AIRE transcriptional activation functional score": "1.14 ± 0.27"}
{"variant": "H454Y", "AIRE transcriptional activation functional score": "0.205 ± 0.11"}
{"variant": "H454P", "AIRE transcriptional activation functional score": "0.129 ± 0.22"}
{"variant": "H454L", "AIRE transcriptional activation functional score": "-0.161 ± 0.21"}
{"variant": "C337T", "AIRE transcriptional activation functional score": "1.42 ± 0.093"}
{"variant": "E229S", "AIRE transcriptional activation functional score": "0.662 ± 0.18"}
{"variant": "E229K", "AIRE transcriptional activation functional score": "0.571 ± 0.18"}
{"variant": "E229I", "AIRE transcriptional activation functional score": "0.102 ± 0.31"}
{"variant": "S535C", "AIRE transcriptional activation functional score": "0.706 ± 0.051"}
{"variant": "V348N", "AIRE transcriptional activation functional score": "1.08 ± 0.14"}
{"variant": "V348K", "AIRE transcriptional activation functional score": "0.974 ± 0.081"}
{"variant": "D478L", "AIRE transcriptional activation functional score": "0.949 ± 0.13"}
{"variant": "S239C", "AIRE transcriptional activation functional score": "1.16 ± 0.37"}
{"variant": "R303I", "AIRE transcriptional activation functional score": "1.32 ± 0.1"}
{"variant": "D410T", "AIRE transcriptional activation functional score": "1.41 ± 0.086"}
{"variant": "P367L", "AIRE transcriptional activation functional score": "0.763 ± 0.36"}
{"variant": "H60N", "AIRE transcriptional activation functional score": "0.179 ± 0.12"}
{"variant": "I18V", "AIRE transcriptional activation functional score": "-0.092 ± 0.32"}
{"variant": "I18N", "AIRE transcriptional activation functional score": "-0.247 ± 0.45"}
{"variant": "P422T", "AIRE transcriptional activation functional score": "0.528 ± 0.38"}
{"variant": "P422D", "AIRE transcriptional activation functional score": "1.69 ± 0.09"}
{"variant": "C449M", "AIRE transcriptional activation functional score": "-0.542 ± 0.087"}
{"variant": "C449H", "AIRE transcriptional activation functional score": "0.515 ± 0.12"}
